Experimental data from US20170360875A1 (priority 2014, published 2017).
Values joined by “and” are separate entries in the source; they are usually repeats but may differ in a detail not shown here. Identical values can stand only once. Ends that are not written are not given here.

Legend:
[1] = target: hepatitis A virus; assay: reverse ELISA; PAP IC without inhibitor on plate coated with HAV 1:10; average of three experiments
[2] = target: recombinant Sudan Ebolavirus glycoprotein (IBT Bioservices, Catalogue Number 0501-015) (Sudan Ebolavirus)
[3] = target: human C1q (Quidel Corp.) (human) (UniProt P02745); assay: reverse ELISA; PAP IC without inhibitor on C1q-coated plate
[4] = target: hepatitis C virus core protein (hepatitis C virus); assay: reverse ELISA; PAP IC without inhibitor on plate coated with 5 µg HCV core protein; average of three experiments
[5] = target: Influenza A/MAL/NY/6750/78 H2N2 virus; assay: reverse ELISA; PAP IC without inhibitor on plate coated with IAV 1:100
[6] = target: FcγIIa (R131 allele) (UniProt P12318)
[7] = target: FcγI (UniProt P12314); assay: reverse ELISA; PAP IC without inhibitor on plate coated with FcγI
[8] = target: FcγIIb (UniProt P31994); assay: reverse ELISA; PAP IC without inhibitor on plate coated with FcγIIb/c
[9] = target: Influenza A/MAL/NY/6750/78 H2N2 virus; assay: reverse ELISA; PAP IC without inhibitor on plate coated with IAV 1:10
[10] = target: FcγIIa (H131 allele) (UniProt P12318)
[11] = target: FcγIIIa (UniProt P08637); assay: reverse ELISA; PAP IC without inhibitor on plate coated with FcγIIIa
[12] = target: hepatitis A virus; assay: reverse ELISA; PAP IC without inhibitor on plate coated with HAV 1:100; average of three experiments
[13] = target: FcγIIb (UniProt P31994); assay: reverse ELISA; PAP IC without inhibitor on plate coated with FcγIIb
[14] = target: FcγIIIb (NA2) (UniProt O75015); assay: reverse ELISA; PAP IC without inhibitor on plate coated with FcγIIIb (NA2)
[15] = target: hepatitis A virus; assay: reverse ELISA control; HRP without antibody on plate coated with HAV 1:10
[16] = target: hepatitis A virus; assay: reverse ELISA control; HRP without antibody on plate coated with HAV 1:100
[17] = target: Influenza A/MAL/NY/6750/78 H2N2 virus; assay: reverse ELISA control; HRP without antibody on plate coated with IAV 1:100
[18] = target: hepatitis C virus core protein (hepatitis C virus); assay: reverse ELISA control; HRP without antibody on plate coated with 5 µg HCV core protein
[19] = target: Influenza A/MAL/NY/6750/78 H2N2 virus; assay: reverse ELISA control; HRP without antibody on plate coated with IAV 1:10
[20] = tested on: FcγIIIa; type: binding
[21] = tested on: C1q; type: binding, human
[22] = tested on: FcγIIb; type: binding

Chain of UniProt P31994 (P31994 46-217 limits assumed): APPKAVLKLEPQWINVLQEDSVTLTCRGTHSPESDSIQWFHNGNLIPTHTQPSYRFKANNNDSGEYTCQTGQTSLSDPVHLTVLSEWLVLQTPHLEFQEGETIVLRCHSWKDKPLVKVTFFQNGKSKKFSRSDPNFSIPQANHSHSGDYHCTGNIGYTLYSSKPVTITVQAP
Chain of UniProt P02745 (P02745 23-245 limits assumed, chain 1 of 3): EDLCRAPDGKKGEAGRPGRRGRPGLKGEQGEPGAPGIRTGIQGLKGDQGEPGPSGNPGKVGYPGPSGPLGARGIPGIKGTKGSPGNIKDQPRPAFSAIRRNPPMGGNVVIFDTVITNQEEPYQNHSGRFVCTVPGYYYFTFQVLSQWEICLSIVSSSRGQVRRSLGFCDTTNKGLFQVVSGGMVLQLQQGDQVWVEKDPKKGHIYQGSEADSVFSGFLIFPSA
Chain of UniProt P02745 (P02746 28-253 limits assumed, chain 2 of 3, further chain): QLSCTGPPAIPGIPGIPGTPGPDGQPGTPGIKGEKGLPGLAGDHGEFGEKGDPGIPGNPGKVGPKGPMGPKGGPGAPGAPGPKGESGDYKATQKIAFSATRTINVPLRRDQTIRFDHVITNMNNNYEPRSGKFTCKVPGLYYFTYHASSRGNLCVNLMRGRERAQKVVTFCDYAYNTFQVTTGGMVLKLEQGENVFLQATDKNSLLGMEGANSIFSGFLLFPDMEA
Chain of UniProt P02745 (P02747 29-245 limits assumed, chain 3 of 3, further chain): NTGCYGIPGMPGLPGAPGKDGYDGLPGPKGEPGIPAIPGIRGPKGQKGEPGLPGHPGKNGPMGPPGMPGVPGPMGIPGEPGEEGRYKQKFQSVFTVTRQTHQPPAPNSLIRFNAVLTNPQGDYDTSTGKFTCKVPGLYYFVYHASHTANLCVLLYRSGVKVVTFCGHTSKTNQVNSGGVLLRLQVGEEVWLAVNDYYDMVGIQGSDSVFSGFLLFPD
Chain of UniProt P08637 (P08637 17-208): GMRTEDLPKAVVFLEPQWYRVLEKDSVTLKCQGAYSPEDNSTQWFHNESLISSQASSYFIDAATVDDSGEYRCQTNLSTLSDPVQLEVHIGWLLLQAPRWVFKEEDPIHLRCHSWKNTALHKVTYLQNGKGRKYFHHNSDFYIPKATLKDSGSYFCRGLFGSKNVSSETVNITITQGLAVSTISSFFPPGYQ
Chain of UniProt P12314 (P12314 16-288 limits assumed): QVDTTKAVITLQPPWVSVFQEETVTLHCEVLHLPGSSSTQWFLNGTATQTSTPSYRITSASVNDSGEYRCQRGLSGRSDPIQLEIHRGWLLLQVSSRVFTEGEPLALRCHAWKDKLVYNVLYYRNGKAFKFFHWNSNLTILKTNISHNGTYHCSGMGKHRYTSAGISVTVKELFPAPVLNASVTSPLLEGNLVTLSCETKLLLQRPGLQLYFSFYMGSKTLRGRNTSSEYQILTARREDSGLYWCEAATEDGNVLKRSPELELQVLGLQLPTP
Chain of UniProt O75015 (O75015 17-200 N65S): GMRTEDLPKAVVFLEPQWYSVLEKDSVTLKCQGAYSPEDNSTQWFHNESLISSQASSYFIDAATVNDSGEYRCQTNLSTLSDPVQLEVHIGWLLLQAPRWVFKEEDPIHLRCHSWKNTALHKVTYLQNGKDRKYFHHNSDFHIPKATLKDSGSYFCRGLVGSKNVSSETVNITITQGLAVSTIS

For “preformed immune complex of peroxidase-rabbit anti-peroxidase IgG (PAP complex) (from UniProt P00433 31-338)”, the OD 405 nm [1] was 0.997 OD 405 nm, the OD 405 nm [2] was 1.61 OD 405 nm and 1.38 OD 405 nm and 1.31 OD 405 nm and the OD 405 nm [3] was 2.35 OD 405 nm. The OD 405 nm [4] was 2.75 OD 405 nm, the OD 405 nm [5] was 1.87 OD 405 nm and the OD405 [6] was 1.6 OD405. The OD 405 nm [7] was 2.33 OD 405 nm, the OD 405 nm [8] was 2.22 OD 405 nm and the OD 405 nm [9] was 1.94 OD 405 nm. It also gave an OD 405 nm [10] of 3.51 OD 405 nm, an OD405 [11] of 1.59 OD405 and an OD 405 nm [12] of 0.953 OD 405 nm. The OD405 [13] was 1.39 OD405 and the OD 405 nm [14] was 3.06 OD 405 nm.

With “horseradish peroxidase (HRP), Sigma-Aldrich P6782 (from UniProt P00433 31-338) (enzyme)” the OD 405 nm [15] was 0.117 OD 405 nm, the OD 405 nm [16] was 0.138 OD 405 nm and the OD 405 nm [17] was 0.178 OD 405 nm. For the same substance, the OD 405 nm [18] was 0.172 OD 405 nm and the OD 405 nm [19] was 0.163 OD 405 nm.

“APPCARHLGELVWCT (cysteine pairing not given here) [SEQ ID NO:16]” was tested, and the “OD405 FcγIIIa” value [20] was 0.709, the “OD 405 nm” value [21] was 0.567 and the “inhibition of C1q binding (rank in words)” value [21] was “next best result”. For the same substance, the “OD405 FcγIIb” value [22] was 0.768.

With “APPCAWHLGELVWCT (cysteine pairing not given here) [SEQ ID NO:14]” the “OD405 FcγIIIa” value [20] was 0.530, the “OD 405 nm” value [21] was 1.148 and the “OD405 FcγIIb” value [22] was 0.562.
